Source: patent US20260266848A1, “COMPOSITIONS AND METHODS FOR DIAGNOSING AND TREATING DYSTONIA” (Duke University, priority 2023, published 2026)

B1: Fus (protein, UniProt P56959 1-518, looked up)
RNA-binding protein FUS: MASNDYTQQATQSYGAYPTQPGQGYSQQSSQPYGQQSYSGYGQSADTSGYGQSSYGSSYGQTQNTGYGTQSAPQGYGSTGGYGSSQSSQSSYGQQSSYPGYGQQPAPSSTSGSYGGSSQSSSYGQPQSGGYGQQSGYGGQQQSYGQQQSSYNPPQGYGQQNQYNSSSGGGGGGGGGNYGQDQSSMSGGGGGGGYGNQDQSGGGGGGYGGGQQDRGGRGRGGGGGYNRSSGGYEPRGRGGGRGGRGGMGGSDRGGFNKFGGPRDQGSRHDSEQDNSDNNTIFVQGLGENVTIESVADYFKQIGIIKTNKKTGQPMINLYTDRETGKLKGEATVSFDDPPSAKAAIDWFDGKEFSGNPIKVSFATRRADFNRGGGNGRGGRGRGGPMGRGGYGGGGSGGGGRGGFPSGGGGGGGQQRAGDWKCPNPTCENMNFSWRNECNQCKAPKPDGPGGGPGGSHMGGNYGDDRRGRGGYDRGGYRGRGGDRGGFRGGRGGGDRGGFGPGKMDSRGEHRQDRRERPY
B2: Nap1l4 (protein, UniProt Q78ZA7 2-375, looked up)
Nucleosome assembly protein …: AENSLSDGGPADSVEAAKNASNTEKLTDQVMQNPQVLAALQERLDNVSHTPSSYIETLPKAVKRRINALKQLQVRCAHIEAKFYEEVHDLERKYAALYQPLFDKRREFITGDVEPTDAESAWHSENEEEDKLAGDMKNKVVIAEKEAATVEELNPKGIPEFWFTIFRNVDMLSELVQEYDEPILKHLQDIKVKFSDPGQPMSFVLEFHFEPNDYFTNPVLTKTYKMKSEPDKADPFSFEGPEIVDCDGCTIDWKKGKNVTVKTIKKKQKHKGRGTVRTITKQVPNESFFNFFSPLKASGDGESLDEDSEFTLASDFEIGHFFRERIVPRAVLYFTGEAIEDDDNFEEGEEGEEEELEGDEEGEDEDDADVNPKV
B3: Cxadr (protein, UniProt P97792 20-365, looked up)
Coxsackievirus and adenovirus …: LSITTPEQRIEKAKGETAYLPCKFTLSPEDQGPLDIEWLISPSDNQIVDQVIILYSGDKIYDNYYPDLKGRVHFTSNDVKSGDASINVTNLQLSDIGTYQCKVKKAPGVANKKFLLTVLVKPSGTRCFVDGSEEIGNDFKLKCEPKEGSLPLQFEWQKLSDSQTMPTPWLAEMTSPVISVKNASSEYSGTYSCTVQNRVGSDQCMLRLDVVPPSNRAGTIAGAVIGTLLALVLIGAILFCCHRKRREEKYEKEVHHDIREDVPPPKSRTSTARSYIGSNHSSLGSMSPSNMEGYSKTQYNQVPSEDFERAPQSPTLAPAKVAAPNLSRMGAVPVMIPAQSKDGSIV
B4: Cnn3 (protein, UniProt Q9DAW9 1-330, looked up)
Calponin-3: MTHFNKGPSYGLSAEVKNKIASKYDQQAEEDLRNWIEEVTGLGIGTNFQLGLKDGIILCELINKLQPGSVKKVNESSLNWPQLENIGNFIKAIQAYGMKPHDIFEANDLFENGNMTQVQTTLVALAGLAKTKGFHTTIDIGVKYAEKQTRRFDEGKLKAGQSVIGLQMGTNKCASQAGMTAYGTRRHLYDPKMQTDKPFDQTTISLQMGTNKGASQAGMLAPGTRRDIYDQKLTLQPVDNSTISLQMGTNKVASQKGMSVYGLGRQVYDPKYCAAPTEPVIHNGSQGTGTNGSEISDSDYQAEYPDEYHGEYPDDYPREYQYGDDQGIDY
B5: Impa1 (protein, UniProt O55023 1-277, looked up)
Inositol monophosphatase 1: MADPWQECMDYAVILARQAGEMIREALKNEMDVMIKSSPADLVTVTDQKVEKMLMSSIKEKYPCHSFIGEESVAAGEKTVFTESPTWFIDPIDGTTNFVHRFPFVAVSIGFLVNKEMEFGIVYSCVEDKMYTGRKGKGAFCNGQKLQVSQQEDITKSLLVTELGSSRKPETLRIVLSNMEKLCSIPIHGIRSVGTAAVNMCLVATGGADAYYEMGIHCWDMAGAGIIVTEAGGVLMDVTGGPFDLMSRRIIAANSITLAKRIAKEIEIIPLQRDDES

Tests used:
[1] = tested on: DYT-TOR1A MEF EVs; assay: Quantitative LC-MS/MS proteomics of EVs from drug-treated DYT-TOR1A MEF cultures (ritonavir, salubrinal); assay type: cell-based, mouse; design: key to RTV Corrective Direction / RTV Corrective Direction, Grwd1 / RTV Corrective Direction, Srrm2 / RTV Corrective Direction, Rbm17 / RTV Corrective Direction, Dcaf8 / RTV Corrective Direction, Edil3 / RTV Corrective Direction, Timp3 / RTV Corrective Direction, Heatr3 / RTV Corrective Direction, Brd4 / RTV Corrective Direction, P3h4 / RTV Corrective Direction, Pacsin3 / RTV Corrective Direction, Naa50 / RTV Corrective Direction, Lpar6 / RTV Corrective Direction, Ndrg1 / RTV Corrective Direction, Kntc1 / RTV Corrective Direction, Cdk11b / RTV Corrective Direction, Sumo1 / RTV Corrective Direction, Lsm4 / RTV Corrective Direction, Hmga2 / RTV Corrective Direction, Cstf1 / RTV Corrective Direction, Tes / RTV Corrective Direction, Sbno1 / RTV Corrective Direction, Unc119b / RTV Corrective Direction, Cfdp1 / RTV Corrective Direction, Sec61b: YES = protein abundance effect opposite to DYT/WT; conditions: EV protein abundance; for RTV Corrective Direction: DYT + RTV (ritonavir) vs DYT, direction compared with DYT/WT; for DYT + RTV/DYT Cohen's d: ritonavir (RTV)-treated DYT vs DYT
[2] = tested on: WT MEF EVs; assay: Quantitative LC-MS/MS proteomics of EVs from ISRIB-treated WT MEF cultures; assay type: cell-based, mouse; conditions: EV protein abundance, ISRIB-treated WT vs WT

Molecule | RTV Corrective Direction [1] | DYT + RTV/DYT Cohen's d [1] | WT + ISRIB/WT Cohen's d [2]
B1 | YES | 11.94 | 0.85
B2 | YES | 5.74 | 2.43
B3 | YES | 3.88 | 1.72
B4 | YES | 4.78 | 2.76
B5 | YES | 10.89 | 1.73
